Experimental findings from patent US20160347831A1 (F HOFFMAN LA ROCHE, published 2016) are described below.

Sequences and labels used below:
B1: VHH R3VQ (VHH)
VHH: EVQLQASGGGLVQTGDSLRLSCADSGSTFRNYNIGWFRQTPGQAREFVAAVSRTGISTHVADSLQGRFTISRDNAKNTVYLQMNSLKPEDTAVYSCAAGRPGVGAVNRAMDYDYWGQGTQVTVSS
notes: Expressed with a His tag or a Strep tag; also called R3VQ(His)-NH2 1; R3VQ-NH2 1; not shown: 6-Histidine tag (pET23) or Strep tag (pASK IBA2) from the vector

In one assay the target is T1, Aβ fragment 29-40 (human).
T1 peptide: GAIIGLMVGGVV
Description: competition ELISA with soluble Aβ fragments. The protocol: (§1) The binding affinity of VHHs was determined as previously described (Friguet B. et al., 1985, Immunol Methods, 77:305-19). Briefly, various concentrations of Aβ peptides (A13 fragments 1-16, 10-20, 15-25, 22-35 and 29-40) were incubated in solution overnight at 4° C. with a known quantity of VHH until equilibrium was reached. The VHH concentration used was determined by preliminary ELISA calibrations. Each mixture (100 μl) was transferred to a well of a microtiter plate previously coated with antigen and was incubated for 20 min at 4° C. The plates were washed with buffer 0.1% Tween 20 in PBS and bound VHHs were detected by adding beta-galactosidase-conjugated goat anti-rabbit Igs (Biosys, Compiegne, France) and 4-methylumbelliferyl […] (Sigma). Fluorescence was read (Fluoroskan, Labsystem, Finland) at 460 nm, after excitation at 355 nm. KD was estimated from the slope of the regression curve obtained by plotting the reciprocal of the fraction of bound antibody versus the reciprocal of the molar concentration of antigen.

The target of another assay is T2, Aβ fragment 1-16 (human).
T2 construct: also called Aβ1-16; Aβ16
T2 peptide: DAEFRHDSGYEVHHQK
The assay can be described thus: competition ELISA with soluble Aβ fragments. On the procedure:
as §1

The target of a further assay is T3, A-beta 42 peptide (Aβ42) (human).
T3 construct: Synthetic peptide (Bachem); incubated to give the fibrillar form for immunisation; also called Aβ1-42; fibrillar synthetic Aβ42 peptide
T3 sequence (peptide, as listed by the source): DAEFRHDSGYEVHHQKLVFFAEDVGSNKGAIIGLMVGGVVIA
The assay can be described thus: competition ELISA in solution (Friguet method). On the procedure:
as §1

The next assay concerns the target T4, A-beta 40 (Aβ40) (human).
T4 construct: ELISA methods say 'A-beta 40 or A-beta 42 (preferably A-beta 40)'; also called Aβ1-40; biotinylated A-beta 40
The assay can be described thus: ELISA on biotinylated Aβ40 (or Aβ42).

The target in the assay “VHH R3VQ” is B1. The assay can be described thus: competition ELISA, soluble Aβ fragment against antigen-coated plate. The protocol: as §1

T4 sequence (peptide, as listed by the source): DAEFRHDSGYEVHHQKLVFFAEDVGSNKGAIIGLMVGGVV

With B1, the binding result in the assay with Aβ fragment 29-40 and in the assay with Aβ fragment 1-16 was “no binding” throughout. In the assay with A-beta 42 peptide (Aβ42), this molecule came in with a Kd of 17 nM.

B2: R3VQ(His)-N-(DOTA/Gd) conjugate 2d (VHH)
VHH: EVQLQASGGGLVQTGDSLRLSCADSGSTFRNYNIGWFRQTPGQAREFVAAVSRTGISTHVADSLQGRFTISRDNAKNTVYLQMNSLKPEDTAVYSCAAGRPGVGAVNRAMDYDYWGQGTQVTVSS
modifications: DOTA/Gd randomly distributed on lysine residues; average Gd/protein (1) 2 (3)
notes: Non-site-specific conjugate; not shown: 6-Histidine tag from pET23
In the case of B2, the “binding in ELISA compared to the original VHH 1” value with A-beta 40 (Aβ40) was approximately 10%.

B3: R3VQ(His)-N-(DOTA/Gd) conjugate 2c (VHH)
VHH: EVQLQASGGGLVQTGDSLRLSCADSGSTFRNYNIGWFRQTPGQAREFVAAVSRTGISTHVADSLQGRFTISRDNAKNTVYLQMNSLKPEDTAVYSCAAGRPGVGAVNRAMDYDYWGQGTQVTVSS
modifications: DOTA/Gd randomly distributed on lysine residues; average Gd/protein (1) 2 (3)
notes: as for B2
Regarding B3, the “binding in ELISA compared to the original VHH 1” value with A-beta 40 (Aβ40) was approximately 10%.

B4: Aβ fragment 16-35 (peptide)
peptide: KLVFFAEDVGSNKGAIIGLM
notes: this fragment is not in the list of fragments tested (1-16, 10-20, 15-25, 22-35, 29-40); also called AP 16-35
For the molecule B4, the IC50 in the assay with VHH R3VQ is 16 nM.
